Test results as given in patent US20050142568A1 (published 2005).

Legend:
Assay in all cases: GST pull-down, 35S-Met protein vs GST fusion; - means no detectable binding (footnote a)
GST-NUC-1 = target: T1, GST-NUC-1 (C. elegans, UniProt Q17778 22-375)
T1 construct: also called NUC-1 GST-fusion protein; not shown: glutathione S-transferase tag encoded by vector pGEX4T-2
T1 sequence (looked up): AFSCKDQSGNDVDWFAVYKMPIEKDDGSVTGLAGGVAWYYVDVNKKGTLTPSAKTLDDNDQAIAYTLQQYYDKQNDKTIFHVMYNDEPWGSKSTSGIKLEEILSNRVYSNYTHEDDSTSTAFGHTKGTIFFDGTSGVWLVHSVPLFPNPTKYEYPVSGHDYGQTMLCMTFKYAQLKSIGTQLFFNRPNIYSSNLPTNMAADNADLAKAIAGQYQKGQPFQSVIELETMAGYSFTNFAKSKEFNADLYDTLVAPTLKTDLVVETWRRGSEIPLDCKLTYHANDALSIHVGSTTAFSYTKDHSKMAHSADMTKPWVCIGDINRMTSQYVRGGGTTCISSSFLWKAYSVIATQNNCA
Protocol: (§1) GST fusion protein pull-down assays were performed as described in J. Parrish, H. Metters, L. Chen, D. Xue, Proc. Natl. Acad. Sci. U.S.A. 97, 11916 (2000). Purified GST or GST-fusion proteins (5 μg each) immobilized on glutathione sepharose beads were incubated with ³⁵S-Methionine labeled proteins at 4° C. for 2 hours. The beads were washed extensively and the bound proteins were resolved on a 12% SDS-PAGE and visualized by autoradiography. [0103] cDNAs corresponding to the ORFs were cloned into the pPD129.36 vector via its Nhe I and Xho I sites or the Xho I site alone. Full-length cDNAs were subcloned into the pGEX4T-2 vector for generating GST fusion proteins and for further protein purification and into the pcDNA3.1 vector for in vitro transcription/translation experiments.
(§2) ^aInteractions were evaluated relative to background binding of ³⁵S-Methionine labeled Luciferase to GST-fusion proteins and ³⁵S-Methionine labeled proteins to GST. “−” indicates no detectable binding, “+” indicates an interaction consistently observed above background levels, and “++” indicates a strong interaction. ^bBecause ³⁵S-Methionine labeled CRN-1 binds GST tightly, it was not possible to evaluate interactions between ³⁵S-CRN-1 and various GST-fusion proteins. ND, not determined.

GST-CRN-1 = target: T2, GST-CRN-1 (C. elegans, UniProt Q9N3T2 21-382)
T2 construct: also called CRN-1 GST-fusion protein; not shown: glutathione S-transferase tag encoded by vector pGEX4T-2
T2 sequence (looked up): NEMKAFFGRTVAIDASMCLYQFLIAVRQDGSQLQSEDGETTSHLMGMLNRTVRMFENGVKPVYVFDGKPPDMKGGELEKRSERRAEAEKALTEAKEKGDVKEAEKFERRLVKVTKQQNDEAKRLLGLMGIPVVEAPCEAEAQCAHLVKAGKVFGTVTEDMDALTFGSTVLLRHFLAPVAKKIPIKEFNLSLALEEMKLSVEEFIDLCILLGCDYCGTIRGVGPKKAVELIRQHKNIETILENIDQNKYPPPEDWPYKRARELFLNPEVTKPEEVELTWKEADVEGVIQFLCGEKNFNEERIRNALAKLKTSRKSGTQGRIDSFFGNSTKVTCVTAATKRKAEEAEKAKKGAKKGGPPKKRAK
Protocol: as §1, §2

GST-CRN-3 = target: T3, GST-CRN-3 (C. elegans, UniProt G5EBX6 1-876)
T3 construct: also called CRN-3 GST-fusion protein; not shown: glutathione S-transferase tag encoded by vector pGEX4T-2
T3 sequence: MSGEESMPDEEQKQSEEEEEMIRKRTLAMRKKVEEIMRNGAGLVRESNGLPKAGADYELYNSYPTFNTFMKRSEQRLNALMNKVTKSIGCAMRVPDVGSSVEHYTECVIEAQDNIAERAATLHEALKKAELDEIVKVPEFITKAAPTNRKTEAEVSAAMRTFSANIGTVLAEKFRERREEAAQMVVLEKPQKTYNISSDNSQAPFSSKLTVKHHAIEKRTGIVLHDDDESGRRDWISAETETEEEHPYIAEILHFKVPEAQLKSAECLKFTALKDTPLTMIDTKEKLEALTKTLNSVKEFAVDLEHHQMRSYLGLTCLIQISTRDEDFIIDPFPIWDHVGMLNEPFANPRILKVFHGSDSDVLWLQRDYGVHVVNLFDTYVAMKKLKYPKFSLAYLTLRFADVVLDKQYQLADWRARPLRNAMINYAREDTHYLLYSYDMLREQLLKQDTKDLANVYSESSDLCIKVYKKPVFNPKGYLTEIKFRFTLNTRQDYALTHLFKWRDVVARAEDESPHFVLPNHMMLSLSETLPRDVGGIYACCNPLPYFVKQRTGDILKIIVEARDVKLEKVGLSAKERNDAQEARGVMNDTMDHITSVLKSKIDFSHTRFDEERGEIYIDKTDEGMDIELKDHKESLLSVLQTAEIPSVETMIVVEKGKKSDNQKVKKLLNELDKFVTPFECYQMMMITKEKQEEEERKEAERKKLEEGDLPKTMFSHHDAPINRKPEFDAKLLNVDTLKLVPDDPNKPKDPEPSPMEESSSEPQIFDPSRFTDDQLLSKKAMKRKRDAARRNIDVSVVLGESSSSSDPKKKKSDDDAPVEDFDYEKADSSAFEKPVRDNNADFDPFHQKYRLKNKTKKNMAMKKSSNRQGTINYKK
Protocol: as §1, §2

GST-CRN-4 = target: T4, GST-CRN-4 (C. elegans, UniProt Q10905 1-298)
T4 construct: also called CRN-4 GST-fusion protein; not shown: glutathione S-transferase tag encoded by vector pGEX4T-2
T4 sequence (looked up): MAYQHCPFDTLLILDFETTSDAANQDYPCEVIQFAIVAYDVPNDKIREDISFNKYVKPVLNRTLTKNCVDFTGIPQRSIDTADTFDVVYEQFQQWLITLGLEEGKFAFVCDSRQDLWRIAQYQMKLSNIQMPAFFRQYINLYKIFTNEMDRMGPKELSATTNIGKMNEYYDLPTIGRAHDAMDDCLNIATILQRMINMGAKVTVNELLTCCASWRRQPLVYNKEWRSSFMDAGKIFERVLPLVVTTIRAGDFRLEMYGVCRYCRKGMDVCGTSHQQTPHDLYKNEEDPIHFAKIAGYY
Protocol: as §1, §2

binding result (GST-NUC-1): no binding
binding result (GST-CRN-1): no binding
binding result (GST-CRN-3): no binding
binding result (GST-CRN-4): no binding
B1: ^35S-Methionine labeled CRN-2 (enzyme, C. elegans)
chain: MALYELVDIGANLGHPSYQKDLNDVLDRAKQAGLSKIMVTGTSEKISHECADLVEKYPGFLYFTAGVHPHDAKDWNDGTLEALKKLQENPSCVAVGECGLDFNRNFSPQDVQKEVFAKQVDMAVKLQKPLFIHEREAHEDMVKILTAAGPSLPPAVIHCFTGTVVEAKKYLEMGFYIGLTGFLWKDRSDNGVQAGLRSGEIPIEKLVLETDAPYMYPKINDKKIPKEIKSLITPETEALHNFSSFNRNEPCSLAAVCELVAAFAGRDPKEVAKITTENAKKVYKLE
